The record followed here is patent US6423315 (UNIVERSITY OF TENNESSEE RESEARCH, dated 2002).

This assay has as its target I-A^q molecule of MHC (mouse (DBA/1)). The experiment in a line: cell-based or functional assay.

Ends that are not written are not given here.

As for PTGPLGPKGQTGELGIAGFKGDTGAK (not fully specified) [CII 245-270 [s266, 267, 269]], the “IL-2 U/ml, T-cell hybridoma 2qCII92.33, molar ratio competitor:CII 245-270 1.6:1” value was 160 U/ml; the “IL-2 U/ml, T-cell hybridoma 2qCII92.33, molar ratio competitor:CII 245-270 3.2:1” value came to 160 U/ml; the “IL-2 U/ml, T-cell hybridoma 2qCII92.33, molar ratio competitor:CII 245-270 6.5:1” value was 160 U/ml; the “IL-2 U/ml, T-cell hybridoma 2qCII92.33, molar ratio competitor:CII 245-270 13:1” value turned out to be 160 U/ml. For the same molecule, the “IL-2 U/ml, T-cell hybridoma qCII85.33, molar ratio competitor:CII 245-270 1.6:1” value stood at 640 U/ml; the “IL-2 U/ml, T-cell hybridoma qCII85.33, molar ratio competitor:CII 245-270 3.2:1” value came out at 640 U/ml; the “IL-2 U/ml, T-cell hybridoma qCII85.33, molar ratio competitor:CII 245-270 6.5:1” value is 640 U/ml; the “IL-2 U/ml, T-cell hybridoma qCII85.33, molar ratio competitor:CII 245-270 13:1” value was found to be 640 U/ml. For the same molecule, the “IL-2 U/ml, T-cell hybridoma qCII98.10, molar ratio competitor:CII 245-270 1.6:1” value was 160 U/ml; the “IL-2 U/ml, T-cell hybridoma qCII98.10, molar ratio competitor:CII 245-270 3.2:1” value stood at 160 U/ml; the “IL-2 U/ml, T-cell hybridoma qCII98.10, molar ratio competitor:CII 245-270 6.5:1” value stood at 160 U/ml; the “IL-2 U/ml, T-cell hybridoma qCII98.10, molar ratio competitor:CII 245-270 13:1” value turned out to be 160 U/ml.
